Where no end group is shown, it is not given here.
B1: MAP7 microtubule-binding domain (MTBD), residues 59-170 (domain or fragment, human, UniProt Q14244 59-170, looked up)
chain: PVLRVDDRQRLARERREEREKQLAAREIVWLEREERARQHYEKHLEERKKRLEEQRQKEERRRAAVEEKRRQRLEEDKERHEAVVRRTMERSQKPKQKHNRWSWGGSLHGSP
notes: Uniformly [13C-15N] labelled in the NMR experiments; The deposited model PDB 8RC1 holds only a poly-alanine backbone of residues 63-151; also called MAP7 MTBD; MT-associated protein 7 MTBD; not shown: His-Tag, N-terminal, cleaved

Columns and labels:
[1] = target: B1; test: fluorescence polarisation; fluorescence anisotropy; 1 µM NHS-fluorescein-labelled α-CTT, MAP7 MTBD 200 to 0 µM, 384-well plate; 40 mM NaPi pH 6.5, 150 mM NaCl, 1 mM DTT; fit with DynaFit; conditions: both partners purified
[2] = target: T1, microtubules polymerised from porcine brain α/β-tubulin (porcine, UniProt P02550 1-451; P02554 1-445); test: ITC; 150 µM MAP7 MTBD titrated in 2 µL steps to 164 µL of 15 µM Taxol-stabilized MT; 37 °C; NMR buffer (40 mM NaPi pH 6.5, 150 mM NaCl) with 1 mM β-ME and 1 mM GTP; duplicates; conditions: both partners purified
T1 construct: α-tubulin of porcine brain tubulin; β-tubulin of porcine brain tubulin; Polymer of α/β-tubulin heterodimers (13 or 14 protofilaments in cryo-EM); Brain tubulin is a mixture of isotypes; For ITC and NMR samples the methods say only 'lyophilized tubulin (Cytoskeleton)' without species; also called MTs; MT; source: bought: Cytoskeleton (porcine brain tubulin, Cat No. T240; lyophilized tubulin), …
T1 sequence (P02550 whole entry, chain 1 of 2): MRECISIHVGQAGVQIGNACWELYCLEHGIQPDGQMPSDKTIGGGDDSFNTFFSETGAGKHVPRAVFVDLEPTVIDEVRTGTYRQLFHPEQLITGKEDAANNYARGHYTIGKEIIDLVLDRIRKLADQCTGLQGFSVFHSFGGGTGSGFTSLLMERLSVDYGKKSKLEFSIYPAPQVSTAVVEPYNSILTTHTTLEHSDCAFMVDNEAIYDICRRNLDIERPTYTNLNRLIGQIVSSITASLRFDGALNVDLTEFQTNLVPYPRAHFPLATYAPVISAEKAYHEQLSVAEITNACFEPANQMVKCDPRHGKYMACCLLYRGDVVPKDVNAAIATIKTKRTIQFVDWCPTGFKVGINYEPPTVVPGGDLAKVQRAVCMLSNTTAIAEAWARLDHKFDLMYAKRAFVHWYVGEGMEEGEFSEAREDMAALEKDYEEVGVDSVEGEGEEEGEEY
T1 sequence (P02554 whole entry, chain 2 of 2): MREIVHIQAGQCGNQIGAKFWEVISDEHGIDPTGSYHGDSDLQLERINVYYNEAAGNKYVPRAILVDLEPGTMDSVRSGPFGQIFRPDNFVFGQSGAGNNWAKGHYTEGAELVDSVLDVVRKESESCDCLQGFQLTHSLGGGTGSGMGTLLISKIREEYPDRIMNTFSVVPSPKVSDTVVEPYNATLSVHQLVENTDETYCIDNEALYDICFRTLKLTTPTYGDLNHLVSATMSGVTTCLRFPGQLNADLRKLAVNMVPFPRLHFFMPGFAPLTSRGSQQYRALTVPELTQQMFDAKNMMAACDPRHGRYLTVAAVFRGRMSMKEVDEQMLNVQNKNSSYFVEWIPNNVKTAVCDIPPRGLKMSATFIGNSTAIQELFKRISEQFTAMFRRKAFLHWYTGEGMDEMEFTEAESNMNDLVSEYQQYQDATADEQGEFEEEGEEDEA

Kd [1]	Kd [2]	stoichiometry N [2]	Binder
91.3 µM			SVEGEGEEEGEEY (also: NHS-fluorescein attached, position not given here, C-terminal tail of HeLa S3 α-tubulin, residues Ser 439-Tyr 451; also called fluorescein labelled α-CTT; NHS-fluorescein-labelled α-CTT; source: synthetic peptide, bought: Sigma-Aldrich; labelled with NHS-fluorescein and dialysed) [NHS-fluorescein-labelled α-tubulin C-terminal tail peptide]
	940 nM	0.51 ± 0.09	B1
